Biological target: T1, E. coli RecA(E38K) protein (E. coli, UniProt P0A7G6 1-353, E38K)
T1 construct: RecA recombinase, E. coli, with the E38K mutation (allele recA730); In the assay it stood as a filament assembled with ATPγS on a biotinylated 60-mer dsDNA held on a streptavidin chip; also called recA730; RecA(E38K)-ATPγS filaments
T1 sequence (looked up): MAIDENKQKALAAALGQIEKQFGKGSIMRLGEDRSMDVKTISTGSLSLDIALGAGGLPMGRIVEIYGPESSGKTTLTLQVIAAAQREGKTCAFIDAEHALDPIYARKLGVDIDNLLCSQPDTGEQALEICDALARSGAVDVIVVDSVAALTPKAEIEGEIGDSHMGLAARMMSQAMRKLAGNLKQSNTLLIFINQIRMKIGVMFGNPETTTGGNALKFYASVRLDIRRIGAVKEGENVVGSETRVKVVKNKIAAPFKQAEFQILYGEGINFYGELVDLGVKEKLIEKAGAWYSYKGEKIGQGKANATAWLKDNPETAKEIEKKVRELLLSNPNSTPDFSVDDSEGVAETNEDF
Assay: SPR; BIAcore T200, SA chip; RecA(E38K) filaments assembled on immobilised biotinylated 60-mer dsDNA; 0.65 uM pol IV injected for 220 s at 5 uL/min; 20 °C; 20 mM Tris-HCl pH 8.0, 10 mM KCl, 10 mM MgCl2, 0.005% surfactant P20, 0.5 mM dithiothreitol, 0.5 mM ATPγS
Settings: both partners purified

B1: DNA polymerase IV (pol IV) (enzyme, E. coli, UniProt Q47155 1-351, looked up)
chain: MRKIIHVDMDCFFAAVEMRDNPALRDIPIAIGGSRERRGVISTANYPARKFGVRSAMPTGMALKLCPHLTLLPGRFDAYKEASNHIREIFSRYTSRIEPLSLDEAYLDVTDSVHCHGSATLIAQEIRQTIFNELQLTASAGVAPVKFLAKIASDMNKPNGQFVITPAEVPAFLQTLPLAKIPGVGKVSAAKLEAMGLRTCGDVQKCDLVMLLKRFGKFGRILWERSQGIDERDVNSERLRKSVGVERTMAEDIHHWSECEAIIERLYPELERRLAKVKPDLLIARQGVKLKFDDFQQTTQEHVWPRLNKADLIATARKTWDERRGGRGVRLVGLHVTLLDPQMERQLVLGL
notes: DNA polymerase IV, product of dinB, E. coli; Native pol IV, no tag, > 99% pure; also called DinB
B1: binds.
